Assay results: IntAct's records for PubMed 21236255

B1: Zinc-dependent sulfurtransferase SufU (Bacillus subtilis), O32163 (parent)
chain: MSFNANLDTLYRQVIMDHYKNPRNKGVLNDSIVVDMNNPTCGDRIRLTMKLDGDIVEDAKFEGEGCSISMASASMMTQAIKGKDIETALSMSKIFSDMMQGKEYDDSIDLGDIEALQGVSKFPARIKCATLSWKALEKGVAKEEGGN

Variants of: B1
Conditions: with sufs_bacsu sufS

Variant	effect of a mutation on the interaction
C66A	disrupting interaction

Variants of: B1
Conditions: with sufs_bacsu sufS
Remark: another data set of the same source

Variant	effect of a mutation on the interaction
C128A	disrupting interaction

Variants of: B1
Conditions: with sufs_bacsu sufS
Remark: another data set of the same source

Variant	effect of a mutation on the interaction
C41A	disrupting interaction

Variants of: B1
Conditions: with sufs_bacsu sufS
Remark: another data set of the same source

Variant	effect of a mutation on the interaction
C41A	increasing interaction
